Experimental data reported in patent publication US20240376207A1 (JIANGSU HENGRUI PHARMACEUTICALS, published 2024).
Values belong to the binder of their own block, whether it stands above or below them.

What was measured:
[1] = molecular target: T1, human PVRIG expressed on cells (human, UniProt Q6DKI7 41-326); experiment: cell-based or functional assay
T1 sequence (looked up): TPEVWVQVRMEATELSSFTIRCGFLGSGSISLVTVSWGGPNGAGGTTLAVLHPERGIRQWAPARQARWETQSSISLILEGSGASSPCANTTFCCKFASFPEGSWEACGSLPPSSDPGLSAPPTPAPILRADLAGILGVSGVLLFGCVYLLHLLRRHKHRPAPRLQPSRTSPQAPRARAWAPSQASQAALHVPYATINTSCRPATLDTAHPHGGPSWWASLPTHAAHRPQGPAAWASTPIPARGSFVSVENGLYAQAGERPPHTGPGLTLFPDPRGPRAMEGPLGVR

[2] = molecular target: T1, human PVRIG expressed on cells; experiment: cell-based or functional assay; remark: listed apart in the source
[3] = molecular target: T2, mouse IgG2a Fc-tagged human PVRIG (h-PVRIG-mIgG2a Fc) recombinant protein (human, UniProt Q6DKI7 41-171, limits assumed); experiment: competition ELISA; human PVRIG coated, competitor human PVRL2
T2 construct: bought from Acrobiosystems; not shown: mouse IgG2a Fc tag
T2 sequence (looked up): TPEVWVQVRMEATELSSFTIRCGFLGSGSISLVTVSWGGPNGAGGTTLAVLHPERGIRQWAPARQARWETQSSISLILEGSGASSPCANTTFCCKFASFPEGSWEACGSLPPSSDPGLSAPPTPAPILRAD

[4] = molecular target: T3, his-tagged human PVRIG (h-PVRIG-his) recombinant protein (human, UniProt Q6DKI7 41-171, limits assumed); experiment: ELISA, coated antigen
T3 construct: bought from Acrobiosystems; also called Human PVRIG-his; human PVRIG recombinant protein; not shown: his tag
T3 sequence (looked up): T2 sequence (looked up)

[5] = molecular target: T4, his-tagged cynomolgus monkey PVRIG (cyno-PVRIG-his) recombinant protein (cynomolgus monkey); experiment: SPR (Biacore X100), antibody captured on Protein A chip, 1:1 fit
T4 construct: expressed in HEK293, purified by Ni-NTA; also called Monkey PVRIG-his; cynomolgus monkey PVRIG recombinant protein
T4 chain: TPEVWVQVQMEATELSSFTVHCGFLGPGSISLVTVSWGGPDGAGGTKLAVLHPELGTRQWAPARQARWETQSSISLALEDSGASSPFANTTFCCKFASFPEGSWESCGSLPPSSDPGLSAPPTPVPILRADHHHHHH
From the text: (§1) The affinity of the humanized bispecific antibodies for human PVRIG, cynomolgus monkey PVRIG and human TIGIT was detected using Biacore. Humanized bispecific antibodies were each captured on a Protein A biosensor chip (GE lifesciences, 29127557) of a Biacore instrument (Biacore X100, GE), and then human PVRIG antigen (AcroBiosystem, PVG-H52H4), cynomolgus monkey PVRIG antigen (SEQ ID NO: 1), or human TIGIT antigen (AcroBiosystem, TIT-H52H3) at a series of concentration gradients each flowed over the chip surface. The reaction signals were detected in real time using a Biacore instrument (Biacore X100, GE) to obtain association and dissociation curves. The data obtained from the experiment were fitted using the (1:1) Binding model with the BiacoreX100 evaluation software 2.0 GE to obtain affinity values (see Table 31).

[6] = molecular target: T5, human PVRIG antigen (AcroBiosystem, PVG-H52H4) (human, UniProt Q6DKI7 41-171, limits assumed); experiment: as above
T5 sequence (looked up): T2 sequence (looked up)
From the text: as §1

[7] = molecular target: T6, human TIGIT antigen (AcroBiosystem, TIT-H52H3) (human, UniProt Q495A1 22-141); experiment: as above
T6 sequence (looked up): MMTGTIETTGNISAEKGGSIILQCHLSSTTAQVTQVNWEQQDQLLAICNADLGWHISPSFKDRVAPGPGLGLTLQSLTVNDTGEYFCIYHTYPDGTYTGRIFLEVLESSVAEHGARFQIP
From the text: as §1

[8] = molecular target: T7, human TIGIT recombinant protein (human, UniProt Q495A1 22-141, limits assumed); experiment: competition ELISA; human TIGIT, competitor human PVR
T7 construct: construct not described; also called human TIGT recombinant protein
T7 sequence (looked up): T6 sequence (looked up)
Procedure: The h-PVRIG-mIgG2a Fc protein (at a concentration of 1 μg/mL) was coated on the 96-well microplate at 100 μL per well, and incubated overnight at 4° C. The plate was washed three times with wash buffer at 250 μL per well. For each wash, the plate was shaken for 10 s to ensure adequate cleaning. A blocking solution was added at 300 μL/well, and the plate was incubated at room temperature for 1 h. The plate was washed three times with wash buffer at 250 μL per well. For each wash, the plate was shaken for 10 s to ensure adequate cleaning. 50 μL of diluted test anti-PVRIG antibody and 50 μL of his-tagged ligand PVRL2 were added to each well, and the plate was incubated at 37° C. for 1 h. The plate was washed three times with wash buffer at 250 μL per well. The HRP-labeled anti-his-tagged secondary antibody (Genscrpit) diluted at 1:2000 was added at 100 μL per well. The plate was incubated at 37° C. for 1 h. The plate was washed three times with wash buffer at 250 μL per well. TMB was added at 100 μL/well, and the plate was incubated in the dark for 15 min. 0.16 M sulfuric acid was added at 50 μL/well. OD values at 450 nm were measured using a Thermo MμtLtiSkanFc microplate reader, and the IC₅₀ values of the anti-PVRIG antibodies blocking the binding of PVRIG to PVRL2 were calculated.
Similarly to Examples 4, 5 and 6, the binding of humanized anti-PVRIG/TIGIT bispecific antibodies to human and cynomolgus monkey TIGIT and blocking of binding of human TIGIT to ligand were detected, where PVRIG protein was replaced with TIGIT and PVRL2 was replaced with PVR.

B1: anti-PVRIG antibody 39 (antibody, human IgG4 S228P, F234A L235A, V domains shown)
VH: QVQLVESGGGSVQAGGSLRLSCAASRYTSRTDCMGWFRQAPGKEREGVAHIDSDGIPRYVESVKGRFTISQDHAKNTLYLQMNSLKPEDSATYYCVVGFKFGDYCAPNDWGQGTQVTVSS
notes: no light chain
NK92 killing of K562, killing activity (%), 4 nM antibody [1]: 21.3%
NK92 killing of K562, killing activity (%), 20 nM antibody [1]: 22.7%
NK92 killing of K562, killing activity (%), 100 nM antibody [1]: 22.8%

PVRIG reporter gene cell activity EC50 [2]: 1.38 nM
IC50 [3]: 0.797 nM
EC50 [4]: 1.86 nM
B2: positive antibody Tab5 (antibody, human IgG4 S228P, kappa, F234A L235A, V domains shown)
VH: EVQLVESGGGVVKPGGSLRLSCAASGFTFGTSSMNWVRQAPGKGLEWVAVISFDGTEIHYADSVKGRFTISRDNSKSTVFLQMNSLRPDDTALYYCAKGSGNIYFYSGMDVWGQGTTVTVSS
VL: DIQMTQSPSTLSASVGDRVTITCRAGQSISGWLAWFQQKPGKAPNLLIYETSTLESGVPSRFSGSGSGTEYTLTISSLQPDDFATYYCQQYYSYPLTFGQGTKVEIKR
notes: Variable regions of CPA.7.021 (WO2016134333A1) on human IgG4 (S228P/F234A/L235A/K447A) and human kappa constant regions

B3: anti-PVRIG antibody 151 (antibody, human IgG4 S228P, F234A L235A, V domains shown)
VH: HVQLVESGGGSVQAGGSLRLSCVASASGFTYRPYCMAWFRQAPGKEREAVAGIDIFGGTTYADSVKGRFTASRDNAGFSLFLQMNDLKPEDTAMYYCAAGDSPDGRCPPLGQGLNYWGQGTQVTVSS
notes: no light chain
NK92 killing of K562, killing activity (%), 4 nM antibody [1]: 20.9%
NK92 killing of K562, killing activity (%), 20 nM antibody [1]: 22.9%
NK92 killing of K562, killing activity (%), 100 nM antibody [1]: 24.2%

Kd [5]: 7.05 nM
koff [5]: 0.181 s⁻¹
kon [5]: 2.56e+07 M⁻¹ s⁻¹
Kd [6]: 0.00782 nM
koff [6]: 0.00013 s⁻¹
kon [6]: 1.67e+07 M⁻¹ s⁻¹
Kd [7]: 0.0763 nM
koff [7]: 0.00015 s⁻¹
kon [7]: 1.97e+06 M⁻¹ s⁻¹
IC50 [8]: 1.02 nM
B4: humanized anti-PVRIG/TIGIT bispecific antibody 1708-20H5 (bispecific antibody, human IgG4 S228P, kappa)
heavy: not shown
light: DIQMTQSPSSLSASVGDRVTITCRASENIYSYLAWYQQKPGKSPKLLIYNARTLAEGVPSRFSGSGSGTDFTLTISSLQPEDFATYYCQYHSGSPLPFGGGTKVEIKRTVAAPSVFIFPPSDEQLKSGTASVVCLLNNFYPREAKVQWKVDNALQSGNSQESVTEQDSKDSTYSLSSTLTLSKADYEKHKVYACEVTHQGLSSPVTKSFNRGEC

Kd [5]: 31.9 nM
koff [5]: 0.581 s⁻¹
kon [5]: 1.82e+07 M⁻¹ s⁻¹
Kd [6]: 0.706 nM
koff [6]: 0.00912 s⁻¹
kon [6]: 1.29e+07 M⁻¹ s⁻¹
Kd [7]: 0.0512 nM
koff [7]: 0.000158 s⁻¹
kon [7]: 3.08e+06 M⁻¹ s⁻¹
IC50 [8]: 1.01 nM
B5: humanized anti-PVRIG/TIGIT bispecific antibody 1708-30H2 (bispecific antibody, human IgG4 S228P, kappa)
heavy: not shown
light: B4 light
